What all share (experiment): fluorescence polarization
Holding throughout (conditions): FP: 10 nM Cy5 nucleosome in Buffer B (composition not in material) except 60 mM NaCl, quadratic fit, EMSA: 15 nM nucleosome, 15 min, room …
For orientation: Polarisation of emitted light reports the rotation of a fluorescent probe.

For series [1], the system named is ncBAF (human).
Series [2] relates to BRG1 (human).
Series [3] has as its system cBAF (ARID1A) (human).
For series [4], the system named is PBAF (human).

A word on the Kd: it is the constant that tells how readily two partners part at equilibrium. Low readings indicate a tighter complex, high ones a looser complex. As to Cy5 mononucleosome, 197-bp 601 DNA, the Kd in series [1] was 17 nM; in series [2], 115 nM; in series [3] it was 45 nM; in series [4] it was 82 nM.
